Where a SMILES comes first, the peptide text is derived from it. [ ]: non-standard residue; d: D form. The star is where a group is joined. Benzoyl(4-tBu) = CC(C)(C)c1ccc(C(=O)*)cc1; Lys(Et2) = CCN(CC)CCCC[C@H](N)C(=O)O
Columns and labels:
[1] = biological target: CBX7 chromodomain (chromobox protein homolog 7); assay: fluorescence polarisation
[2] = biological target: CBX8 chromodomain (chromobox protein homolog 8); assay: fluorescence polarisation
[3] = biological target: CDY1 chromodomain (Testis-specific chromodomain protein Y 1); assay: fluorescence polarisation
[4] = biological target: CDYL chromodomain (Chromodomain Y-like protein); assay: fluorescence polarisation
[5] = biological target: CDYL2 chromodomain (Chromodomain Y-like protein 2); assay: fluorescence polarisation
[6] = biological target: MPP8 chromodomain (M-phase phosphoprotein 8); assay: fluorescence polarisation
[7] = tested on: CDYL chromodomains; assay: selectivity profile of UNC3866, CDYL chromodomains; type: binding; details: reduced potency relative to CBX7 and CBX4
[8] = tested on: chromodomain of MPP8; assay: selectivity profile of UNC3866, MPP8; type: binding; details: reduced potency relative to CBX7 and CBX4
[9] = biological target: PRC1 chromodomains (CBX2, -4, -6, -7, and -8); details: cited from earlier work

Molecule	Kd [1]	Kd [2]	Kd [3]	Kd [4]	Kd [5]	Kd [6]	selectivity, CDYL chromodomains relative to CBX7 and CBX4 [7]	selectivity, MPP8 relative to CBX7 and CBX4 [8]	Kd [9]
UNC3866-FAM (peptide)	93 nM	666 nM	6410 nM	1010 nM	710 nM	4790 nM			
CCN(CC)CCCC[C@H](NC(=O)[C@H](CC(C)C)NC(=O)[C@H](C)NC(=O)[C@H](Cc1ccccc1)NC(=O)c1ccc(C(C)(C)C)cc1)C(=O)N[C@@H](CO)C(=O)OC [UNC3866] ({Benzoyl(4-tBu)}-FAL[Lys(Et2)]S-OMe)							~8 fold	~30 fold	~100 nM

— article PMC5026585 (ACS chemical biology, 2016)
